This passage reports Expression results from patent publication US20230226096A1 (Orna Therapeutics, Inc., priority 2020, published 2023).

The labels stand for the following.
B1: Seneca valley virus (nucleic acid)
DNA: TTTGAAATGGGGGGCTGGGCCCTGATGCCCAGTCCTTCCTTTCCCCTTCCGGGGGGTTAACCGGCTGTGTTTGCTAGAGGCACAGAGGGGCAACATCCAACCTGCTTTTGCGGGGAACGGTGCGGCTCCGATTCCTGCGTCGCCAAAGGTGTTAGCGCACCCAAACGGCGCACCTACCAATGTTATTGGTGTGGTCTGCGAGTTCTAGCCTACTCGTTTCTCCCCCGACCATTCACTCACCCACGAAAAGTGTGTTGTAACCATAAGATTTAACCCCCGCACGGGATGTGCGATAACCGTAAGACTGGCTCAAGCGCGGAAAGCGCTGTAACCACATGCTGTTAGTCCCTTTATGGCTGCAAGATGGCTACCCACCTCGGATCACTGAACTGGAGCTCGACCCTCCTTAGTAAGGGAACCGAGAGGCCTTCGTGCAACAAGCTCCGACACAGAGTCCACGTGACTGCTACCACCATGAGTACATGGTTCTCCCCTCTCGACCCAGGACTTCTTTTTGAATATCCACGGCTCGATCCAGAGGGTGGGGCATGACCCCTAGCATAGCGAGCTACAGCGGGAACTGTAGCTAGGCCTTAGCGTGCCTTGGATACTGCCTGATAGGGCGACGGCCTAGTCGTGTCGGTTCTATAGGTAGCACATACAAAT
B2: Shingleback nidovirus 1 (nucleic acid)
DNA: CTGTGAGTACCGACAGGCTCGAAGTCTATTATGAGGCGTCGAAACAGAAAACCTGTAACAACTCCGGTTTCATCTATCACTGCCGTCAAGAGGCAGAAGAGGACGACCACGTGTCACCAGATCACTTGTATCTGTTTCAGTCAGGAAGTCAACTTTTCGACGAAGTTCGACCATTCATCGACCCGCTGAAAAGCGTAGAAGTCGATGAAGATGAGCTCCAAAGAGCCATCGCCGATTTCGACAACCAAAGTGACTGTTTCCACTCCTTCGAGCTCGTGAATTTCGAGCTGAAACAACAAATCAACGAGAACGAGTGGTACGGTTATTATAATTACGACAACCAAAACTGCAAAGTTCAGTTGCCAGTCACATGTCGAATCGAGGACGTAACCTGGGATCAGGTTTACGTG
modifications: Shingleback nidovirus 1
B3: Livupivirus (nucleic acid, listed as Livupivirus sp.)
DNA: TATCTACATGGGGATCCAGGCTGTATGGAATGTCTGTCTTAACAAGCACTATACCAGAAAGATCCACCCAAAGTGGTGGGACTGGGACTGTGAGGTGAGAAATCCCGAAACCAGCCTTCTCAAGCGTCGGACGATCTTTCTGTTTTAGTGAACACCTTGCCTTTTAAATGGATGACAACACCCCTTCAGCAAATCGCAATCTGAAATCCCAAAAGACTGTTTAGCCGAACTCTGGTAATCACTCCGGAGAAGTAGGATACGCAGCCCCTGTGGACTCTTGATTTCAGGACTCAAGGTAGCTAGAGCTGGAACTTCATGGAATGACAAAGGAATATATGCACATTGTGCGCTTTCCTGGCCTTGTAGCCCGTCGTGAGGATATGTCGTTGGGAATCGACATCTTAGTCCAGTACTGCTTGATAGAGTGTCGGCTGGCACAGTTACCTGAGAATAAGTCAGTTGTACTTAACATGAACAAAAAAAATAACTACCACAACTACCACAATCTACCAATACTTGAATTATGCTGAATCTCGTACAGTAAAAACGTTCCGTGGAAGGACAAGTATTGAAGTGCGGTTACATCATCCGATACGCGCTGGATCCCTCA
B4: Rodent hepatovirus (nucleic acid, listed as Hepatovirus sp.)
DNA: TTCAAAGAGGGGTCCGGGATTTTCCTGGTCCCCCTCTTTGGGCACCCTTGGCTCGGGGGTGTGAATACCGTGCTCGCGTTTGCCGTGCGTTAACGGCTTCATTTATGTTTGTTTGTCTGTTTTATTATGTTGGTTTGTCTGTTTGTTATGTTGGTATTGTTCGTGTTTAATGTTATGACCACATTACACTCCAGCCAATGAAGAACAGATGGTGCGGTTATTGCTGGCGGAATTCCTAACGTCCTGGATCCGTTGGTACGCATCACAAAACAATTTGCAGAGAGAGTGGTGAAACGGCTTGGGAATCCCTGAGTACAGGGAAATCACACTGATAGCTCATCTTGGCTGTTTTCAGTCATGGACCTTATGCAGTGTAATTTGGGTGTACCCCCCATAGCTTAGGAGGAATGTTCTGTCTTGGCACTAGAGTGGGACGCTGATGCCTCCGTGTCTAGGATGGTCTAAGGGACAGAATGGGGTGCCTCTGATGCCATACTACCTGATAGGGTGCTCTCACGGCCTCTGCATCTTAGTGAGAAGTTCAATTTT
B5: Rabovirus A (nucleic acid)
DNA: CTACGGATATTTGCATGACCCGCTTTCTATCGCCCCAACAATCCCCTTTGTAACCACAAGCTTTACTCAGGCTAGCAGCCCGACTAGCTGTTTGGAAGAAAAGGCTAGGGCACACACCAACAACACCGACCCCACTGGTCGAAGGCCGCTTGGCAATAAGACTGGTGGAACAGGGTCGCCTGTAGTTGTTTGGAACATTCTTTCTAATGACTTTGTCAGCGGTGCTACTCACACCGTAACTCTTCTACCCTATCCCCACGCTTGTGGAACTAGGAGGGGATGAGTGATTCAAGTAAGTACTGTCAGAATGGTGAAAATGATCTGATTCTGAAACGCTATGGATCCATCGAAAGATGGGGCTACACGCCTGCGGAACAACACATGGTAACATGTGCCCCAGGGGCCGAAAGCCACGGTGATAGGATCACCCGTGTAGTTTGAGATCATATCAATGTTCATAGTCTAGTAAGATGATTTGAAATCTAACTGAGCTGATGGCTAACTGCTTGTCTTATTGCGGCCTAAGGATGTCCTGCAGGTACCTTTAGATAACCTTAAGAGACTATTGATCTGAGCAGGAGCCAAAGTGGTCTTTCCCAGCTTTGGTTAAAAAACGTCTAAGCCGCGGCAGGGGGCGGGAGGCCCCCTTTCCTCCCAAAACTTAATATTGATTGT
modifications: Rabovirus A
B6: Picornavirales Tottori-HG1 (nucleic acid)
DNA: AGCCATGAACTAGTGTGCGATTCCCACAGTGTTGGTCGAAAGCCCCGCACTGTCTACTCGCATATTTGACTCCAGTCCTTCCGCAGCCAGCGGTTAGGTTCTGGTTAAAGTGCATTATGTGCACGGCGCCACGCAGAACTGCCAGAAATGGTAAGCTGCGCCCAACGCCAACGGTTTGTGTATCCCGTTAGTCACACGTTTACAGCTGTTCGTTAACAGTAGGGTTTTGTCGACCCGGACCCCTTAATGCGCGCGAATTCAACCGCGCCTAGTCGGCAATGGTATCATTTAATCCCATGCACTACGGGAGAAATTTGAGACCAAAGAATTCCTGAGGGCCACTGCTTGCTCTAAGTGCAATGCCTCGGGAGACTTCTGTCAGGAGCCTAGCGGCTTTCAACCGCGACAGCTAACTCCTGCGGGATGTTTGGTGTCCATACTTACTGGCGTCCTCACAACGCTAAGTGGATGTTGTCCACAGGTAGGCAAACACCGAGCCCCACATTCAGGAGACCTGTATGAACGATCCTATCAGCATTAGAGTTGGAATTGGGTGTGCTAACGTCCGCATAAGTGCACCCCGTGGTAACGCTGGGAAACTATCCAGCGCAACGTACTGTCCTCAATGTCTAGGGAAGGACCGCCCTAAGCGTACAACCGGGCCATGTGTCGAGC

This data set has as its system HEK293 cells. Format: cell-based, human. The settings on record: luminescence from secreted Gluc in supernatant 24 hours after transfection of HEK293 cells; circular RNA encoding Gluc with the named IRES (UTR truncated to 675 nt).
Consider B1, for which the Expression amounted to 1.46E+07.
B2 registered an Expression of 2.62E+05.
B3 had an Expression of 2.10E+05.
The figure for B4 is 1.39E+05.
Regarding B5, the Expression came out at 2.88E+06.
Molecule B6 gave an Expression of 9.54E+04.
